Reference: publication PMC4162405 (Cell reports, 2014)

B1: GST-PALB2 WD40 domain (residues 853–1186) (domain or fragment, human, UniProt Q86YC2 853-1186, looked up)
chain: GNLQLVSELKNPSGSCSVDVSAMFWERAGCKEPCIITACEDVVSLWKALDAWQWEKLYTWHFAEVPVLQIVPVPDVYNLVCVALGNLEIREIRALFCSSDDESEKQVLLKSGNIKAVLGLTKRRLVSSSGTLSDQQVEVMTFAEDGGGKENQFLMPPEETILTFAEVQGMQEALLGTTIMNNIVIWNLKTGQLLKKMHIDDSYQASVCHKAYSEMGLLFIVLSHPCAKESESLRSPVFQLIVINPKTTLSVGVMLYCLPPGQAGRFLEGDVKDHCAAAILTSGTIAIWDLLLGQCTALLPPVSDQHWSFVKWSGTDSHLLAGQKDGNIFVYHYS
B2: Polymerase eta (Polη), purified human (enzyme, UniProt Q9Y253 1-713, looked up)
chain: MATGQDRVVALVDMDCFFVQVEQRQNPHLRNKPCAVVQYKSWKGGGIIAVSYEARAFGVTRSMWADDAKKLCPDLLLAQVRESRGKANLTKYREASVEVMEIMSRFAVIERASIDEAYVDLTSAVQERLQKLQGQPISADLLPSTYIEGLPQGPTTAEETVQKEGMRKQGLFQWLDSLQIDNLTSPDLQLTVGAVIVEEMRAAIERETGFQCSAGISHNKVLAKLACGLNKPNRQTLVSHGSVPQLFSQMPIRKIRSLGGKLGASVIEILGIEYMGELTQFTESQLQSHFGEKNGSWLYAMCRGIEHDPVKPRQLPKTIGCSKNFPGKTALATREQVQWWLLQLAQELEERLTKDRNDNDRVATQLVVSIRVQGDKRLSSLRRCCALTRYDAHKMSHDAFTVIKNCNTSGIQTEWSPPLTMLFLCATKFSASAPSSSTDITSFLSSDPSSLPKVPVTSSEAKTQGSGPAVTATKKATTSLESFFQKAAERQKVKEASLSSLTAPTQAPMSNSPSKPSLPFQTSQSTGTEPFFKQKSLLLKQKQLNNSSVSSPQQNPWSNCKALPNSLPTEYPGCVPVCEGVSKLEESSKATPAEMDLAHNSQSMHASSASKSVLEVTQKATPNPSLLAAEDQVPCEKCGSLVPVWDMPEHMDYHFALELQKSFLQPHSSNPQVVSAVSHQGKRNPKSPLACTNKRPRPEGMQTLESFFKPLTH
B3: GST-BRCA2 truncation 4 (residues 1338–1781) (domain or fragment, human, UniProt P51587 1338-1781, looked up)
chain: GSDSSKNDTVCIHKDETDLLFTDQHNICLKLSGQFMKEGNTQIKEDLSDLTFLEVAKAQEACHGNTSNKEQLTATKTEQNIKDFETSDTFFQTASGKNISVAKESFNKIVNFFDQKPEELHNFSLNSELHSDIRKNKMDILSYEETDIVKHKILKESVPVGTGNQLVTFQGQPERDEKIKEPTLLGFHTASGKKVKIAKESLDKVKNLFDEKEQGTSEITSFSHQWAKTLKYREACKDLELACETIEITAAPKCKEMQNSLNNDKNLVSIETVVPPKLLSDNLCRQTENLKTSKSIFLKVKVHENVEKETAKSPATCYTNQSPYSVIENSALAFYTSCSRKTSVSQTSLLEAKKWLREGIFDGQPERINTADYVGNYLYENNSNSTIAENDKNHLSEKQDTYLSNSSMSNSYSYHSDEVYNDSGYLSKNKLDSGIEPVLKNVED

Legend:
[1] = biological target: B2; assay: pull-down
[2] = biological target: T1, purified human PALB2 (Partner and localizer of BRCA2) (human, UniProt Q86YC2 1-1186); assay: co-IP
T1 sequence (looked up): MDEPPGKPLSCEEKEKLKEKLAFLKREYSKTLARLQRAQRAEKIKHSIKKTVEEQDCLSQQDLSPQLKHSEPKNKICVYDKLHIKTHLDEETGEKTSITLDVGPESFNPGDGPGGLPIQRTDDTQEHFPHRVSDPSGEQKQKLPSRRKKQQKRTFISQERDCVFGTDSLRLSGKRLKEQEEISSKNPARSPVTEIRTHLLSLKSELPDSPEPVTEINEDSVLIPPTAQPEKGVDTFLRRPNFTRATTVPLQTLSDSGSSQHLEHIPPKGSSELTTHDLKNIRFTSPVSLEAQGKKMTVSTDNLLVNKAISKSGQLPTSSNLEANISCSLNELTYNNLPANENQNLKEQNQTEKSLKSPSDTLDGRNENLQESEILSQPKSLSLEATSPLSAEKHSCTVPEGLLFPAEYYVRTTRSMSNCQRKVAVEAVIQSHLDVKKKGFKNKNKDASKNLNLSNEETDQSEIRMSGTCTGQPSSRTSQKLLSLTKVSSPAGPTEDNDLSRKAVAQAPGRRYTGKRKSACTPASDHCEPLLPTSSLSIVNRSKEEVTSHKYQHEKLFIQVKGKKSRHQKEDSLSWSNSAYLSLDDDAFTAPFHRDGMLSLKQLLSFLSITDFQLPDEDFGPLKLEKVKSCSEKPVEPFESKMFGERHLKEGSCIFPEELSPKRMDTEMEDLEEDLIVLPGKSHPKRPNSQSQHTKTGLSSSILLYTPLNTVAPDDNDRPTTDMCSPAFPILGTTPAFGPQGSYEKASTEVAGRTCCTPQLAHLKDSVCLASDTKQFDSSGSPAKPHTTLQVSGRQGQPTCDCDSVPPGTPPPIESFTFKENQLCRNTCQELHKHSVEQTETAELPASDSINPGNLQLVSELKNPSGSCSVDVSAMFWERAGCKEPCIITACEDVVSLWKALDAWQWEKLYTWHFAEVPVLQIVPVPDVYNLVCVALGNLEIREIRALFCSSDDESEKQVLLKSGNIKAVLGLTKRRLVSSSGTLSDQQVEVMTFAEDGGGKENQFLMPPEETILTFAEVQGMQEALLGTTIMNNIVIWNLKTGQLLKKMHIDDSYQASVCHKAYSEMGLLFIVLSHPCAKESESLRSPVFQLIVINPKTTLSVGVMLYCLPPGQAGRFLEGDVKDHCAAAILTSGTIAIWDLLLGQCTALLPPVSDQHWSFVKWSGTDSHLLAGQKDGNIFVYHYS

[3] = biological target: B2; assay: co-IP

## B1
[1]
  binding result: binds

## B2
[2]
  binding result: binds

## B3
[3]
  binding result: binds
